B1: Tripartite motif-containing protein 29 (Homo sapiens), Q14134-1 (parent)
chain: MEAADASRSNGSSPEARDARSPSGPSGSLENGTKADGKDAKTTNGHGGEAAEGKSLGSALKPGEGRSALFAGNEWRRPIIQFVESGDDKNSNYFSMDSMEGKRSPYAGLQLGAAKKPPVTFAEKGELRKSIFSESRKPTVSIMEPGETRRNSYPRADTGLFSRSKSGSEEVLCDSCIGNKQKAVKSCLVCQASFCELHLKPHLEGAAFRDHQLLEPIRDFEARKCPVHGKTMELFCQTDQTCICYLCMFQEHKNHSTVTVEEAKAEKETELSLQKEQLQLKIIEIEDEAEKWQKEKDRIKSFTTNEKAILEQNFRDLVRDLEKQKEEVRAALEQREQDAVDQVKVIMDALDERAKVLHEDKQTREQLHSISDSVLFLQEFGALMSNYSLPPPLPTYHVLLEGEGLGQSLGNFKDDLLNVCMRHVEKMCKADLSRNFIERNHMENGGDHRYVNNYTNSFGGEWSAPDTMKRYSMYLTPKGGVRTSYQPSSPGRFTKETTQKNFNNLYGTKGNYTSRVWEYSSSIQNSDNDLPVVQGSSSFSLKGYPSLMRSQSPKAQPQTWKSGKQTMLSHYRPFYVNKGNGIGSNEAP
B2: Microtubule-associated tumor suppressor candidate 2 (Homo sapiens), Q5JR59-3 (parent)
chain: MGHCCCKPYNCLQCLDKTNESALVKEKELSIELANIRDEVAFHTAKCEKLQKEKEELERRFEDEVKRLGWQQQAELQELEERLQLQFEAEMARLQEEHGDQLLSIRCQHQEQVEDLTASHDAALLEMENNHTVAITILQDDHDHKVQELMSTHELEKKELEENFEKLRLSLQDQVDTLTFQSQSLRDRARRFEEALRKNTEEQLEIALAPYQHLEEDMKSLKQVLEMKNQQIHEQEKKILELEKLAEKNIILEEKIQVLQQQNEDLKARIDQNTVVTRQLSEENANLQEYVEKETQEKKRLSRTNEELLWKLQTGDPTSPIKLSPTSPVYRGSSSGPSSPARVSTTPR
partner: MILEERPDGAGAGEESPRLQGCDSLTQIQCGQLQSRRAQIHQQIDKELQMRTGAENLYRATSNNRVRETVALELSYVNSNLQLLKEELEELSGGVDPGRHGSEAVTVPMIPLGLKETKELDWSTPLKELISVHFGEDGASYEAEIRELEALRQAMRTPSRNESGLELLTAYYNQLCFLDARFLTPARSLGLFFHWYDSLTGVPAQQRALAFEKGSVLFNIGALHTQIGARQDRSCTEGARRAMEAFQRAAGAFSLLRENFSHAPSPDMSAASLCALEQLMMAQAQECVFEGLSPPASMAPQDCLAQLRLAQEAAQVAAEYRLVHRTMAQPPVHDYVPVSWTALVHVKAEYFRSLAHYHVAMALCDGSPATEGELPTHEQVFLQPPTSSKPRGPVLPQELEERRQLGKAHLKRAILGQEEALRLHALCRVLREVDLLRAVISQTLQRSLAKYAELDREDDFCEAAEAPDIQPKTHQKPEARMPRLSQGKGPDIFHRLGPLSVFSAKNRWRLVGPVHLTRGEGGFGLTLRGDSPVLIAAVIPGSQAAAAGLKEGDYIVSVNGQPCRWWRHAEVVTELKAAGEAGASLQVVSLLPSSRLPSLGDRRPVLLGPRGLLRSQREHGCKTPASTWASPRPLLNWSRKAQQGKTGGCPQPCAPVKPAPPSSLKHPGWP
B3: TBC1 domain family member 22B (Homo sapiens), Q9NU19 (parent)
chain: MAAENSKQFWKRSAKLPGSIQPVYGAQHPPLDPRLTKNFIKERSKVNTVPLKNKKASSFHEFARNTSDAWDIGDDEEEDFSSPSFQTLNSKVALATAAQVLENHSKLRVKPERSQSTTSDVPANYKVIKSSSDAQLSRNSSDTCLRNPLHKQQSLPLRPIIPLVARISDQNASGAPPMTVREKTRLEKFRQLLSSQNTDLDELRKCSWPGVPREVRPITWRLLSGYLPANTERRKLTLQRKREEYFGFIEQYYDSRNEEHHQDTYRQIHIDIPRTNPLIPLFQQPLVQEIFERILFIWAIRHPASGYVQGINDLVTPFFVVFLSEYVEEDVENFDVTNLSQDMLRSIEADSFWCMSKLLDGIQDNYTFAQPGIQKKVKALEELVSRIDEQVHNHFRRYEVEYLQFAFRWMNNLLMRELPLRCTIRLWDTYQSEPEGFSHFHLYVCAAFLIKWRKEILDEEDFQGLLMLLQNLPTIHWGNEEIGLLLAEAYRLKYMFADAPNHYRR
partner: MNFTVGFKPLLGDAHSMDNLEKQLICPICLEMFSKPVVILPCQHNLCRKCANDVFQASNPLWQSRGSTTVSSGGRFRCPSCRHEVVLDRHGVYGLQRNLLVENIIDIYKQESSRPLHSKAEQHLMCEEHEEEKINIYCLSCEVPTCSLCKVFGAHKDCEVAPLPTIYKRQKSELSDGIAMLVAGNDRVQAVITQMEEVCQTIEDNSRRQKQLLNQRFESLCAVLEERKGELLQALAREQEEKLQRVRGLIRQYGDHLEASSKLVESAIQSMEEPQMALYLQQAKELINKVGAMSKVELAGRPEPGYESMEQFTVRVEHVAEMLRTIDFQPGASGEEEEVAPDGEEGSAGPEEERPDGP
B4: Pre-B-cell leukemia transcription factor-interacting protein 1 (Homo sapiens), Q96AQ6 (parent)
chain: MASCPDSDNSWVLAGSESLPVETLGPASRMDPESERALQAPHSPSKTDGKELAGTMDGEGTLFQTESPQSGSILTEETEVKGTLEGDVCGVEPPGPGDTVVQGDLQETTVVTGLGPDTQDLEGQSPPQSLPSTPKAAWIREEGRCSSSDDDTDVDMEGLRRRRGREAGPPQPMVPLAVENQAGGEGAGGELGISLNMCLLGALVLLGLGVLLFSGGLSESETGPMEEVERQVLPDPEVLEAVGDRQDGLREQLQAPVPPDSVPSLQNMGLLLDKLAKENQDIRLLQAQLQAQKEELQSLMHQPKGLEEENAQLRGALQQGEAFQRALESELQQLRARLQGLEADCVRGPDGVCLSGGRGPQGDKAIREQGPREQEPELSFLKQKEQLEAEAQALRQELERQRRLLGSVQQDLERSLQDASRGDPAHAGLAELGHRLAQKLQGLENWGQDPGVSANASKAWHQKSHFQNSREWSGKEKWWDGQRDRKAEHWKHKKEESGRERKKNWGGQEDREPAGRWKEGRPRVEESGSKKEGKRQGPKEPPRKSGSFHSSGEKQKQPRWREGTKDSHDPLPSWAELLRPKYRAPQGCSGVDECARQEGLTFFGTELAPVRQQELASLLRTYLARLPWAGQLTKELPLSPAFFGEDGIFRHDRLRFRDFVDALEDSLEEVAVQQTGDDDEVDDFEDFIFSHFFGDKALKKRSGKKDKHSQSPRAAGPREGHSHSHHHHHRG
B5: Polyunsaturated fatty acid 5-lipoxygenase (Homo sapiens), P09917 (parent)
chain: MPSYTVTVATGSQWFAGTDDYIYLSLVGSAGCSEKHLLDKPFYNDFERGAVDSYDVTVDEELGEIQLVRIEKRKYWLNDDWYLKYITLKTPHGDYIEFPCYRWITGDVEVVLRDGRAKLARDDQIHILKQHRRKELETRQKQYRWMEWNPGFPLSIDAKCHKDLPRDIQFDSEKGVDFVLNYSKAMENLFINRFMHMFQSSWNDFADFEKIFVKISNTISERVMNHWQEDLMFGYQFLNGCNPVLIRRCTELPEKLPVTTEMVECSLERQLSLEQEVQQGNIFIVDFELLDGIDANKTDPCTLQFLAAPICLLYKNLANKIVPIAIQLNQIPGDENPIFLPSDAKYDWLLAKIWVRSSDFHVHQTITHLLRTHLVSEVFGIAMYRQLPAVHPIFKLLVAHVRFTIAINTKAREQLICECGLFDKANATGGGGHVQMVQRAMKDLTYASLCFPEAIKARGMESKEDIPYYFYRDDGLLVWEAIRTFTAEVVDIYYEGDQVVEEDPELQDFVNDVYVYGMRGRKSSGFPKSVKSREQLSEYLTVVIFTASAQHAAVNFGQYDWCSWIPNAPPTMRAPPPTAKGVVTIEQIVDTLPDRGRSCWHLGAVWALSQFQENELFLGMYPEEHFIEKPVKEAMARFRKNLEAIVSVIAERNKKKQLPYYYLSPDRIPNSVAI
B6: Zinc finger and BTB domain-containing protein 49 (Homo sapiens), Q6ZSB9 (parent)
chain: MDPVATHSCHLLQQLHEQRIQGLLCDCMLVVKGVCFKAHKNVLAAFSQYFRSLFQNSSSQKNDVFHLDVKNVSGIGQILDFMYTSHLDLNQDNIQVMLDTAQCLQVQNVLSLCHTFLKSATVVQPPGMPCNSTLSLQSTLTPDATCVISENYPPHLLQECSADAQQNKTLDESHPHASPSVNRHHSAGEISKQAPDTSDGSCTELPFKQPNYYYKLRNFYSKQYHKHAAGPSQERVVEQPFAFSTSTDLTTVESQPCAVSHSECILESPEHLPSNFLAQPVNDSAPHPESDATCQQPVKQMRLKKAIHLKKLNFLKSQKYAEQVSEPKSDDGLTKRLESASKNTLEKASSQSAEEKESEEVVSCENFNCISETERPEDPAALEDQSQTLQSQRQYACELCGKPFKHPSNLELHKRSHTGEKPFECNICGKHFSQAGNLQTHLRRHSGEKPYICEICGKRFAASGDVQRHIIIHSGEKPHLCDICGRGFSNFSNLKEHKKTHTADKVFTCDECGKSFNMQRKLVKHRIRHTGERPYSCSACGKCFGGSGDLRRHVRTHTGEKPYTCEICNKCFTRSAVLRRHKKMHCKAGDESPDVLEELSQAIETSDLEKSQSSDSFSQDTSVTLMPVSVKLPVHPVENSVAEFDSHSGGSYCKLRSMIQPHGVSDQEKLSLDPGKLAKPQMQQTQPQAYAYSDVDTPAGGEPLQADGMAMIRSSLAALDNHGGDPLGSRASSTTYRNSEGQFFSSMTLWGLAMKTLQNENELDQ

Variants of: B1
Settings: with tri23_human TRIM23, P36406
tri23_human TRIM23, P36406, sequence (P36406 whole entry): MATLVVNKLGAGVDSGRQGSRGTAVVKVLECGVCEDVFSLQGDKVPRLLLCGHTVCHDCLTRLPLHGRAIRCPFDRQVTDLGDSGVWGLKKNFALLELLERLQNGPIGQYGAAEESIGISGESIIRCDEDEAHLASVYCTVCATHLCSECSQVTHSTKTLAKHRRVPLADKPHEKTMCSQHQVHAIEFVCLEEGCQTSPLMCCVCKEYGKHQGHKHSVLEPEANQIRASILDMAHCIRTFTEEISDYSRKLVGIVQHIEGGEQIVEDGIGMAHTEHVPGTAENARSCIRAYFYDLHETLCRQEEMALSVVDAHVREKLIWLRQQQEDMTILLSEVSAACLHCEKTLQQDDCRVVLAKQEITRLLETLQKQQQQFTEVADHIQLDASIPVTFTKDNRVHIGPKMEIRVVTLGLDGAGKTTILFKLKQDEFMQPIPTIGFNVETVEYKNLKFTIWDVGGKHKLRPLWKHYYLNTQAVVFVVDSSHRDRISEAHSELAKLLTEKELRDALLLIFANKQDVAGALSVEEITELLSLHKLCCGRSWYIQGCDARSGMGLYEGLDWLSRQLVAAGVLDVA

Variant | effect of a mutation on the interaction
S514F | with no effect

Variants of: B1
Settings: with cep70_human CEP70, Q8NHQ1
Target sequence in this assay (Q8NHQ1 whole entry): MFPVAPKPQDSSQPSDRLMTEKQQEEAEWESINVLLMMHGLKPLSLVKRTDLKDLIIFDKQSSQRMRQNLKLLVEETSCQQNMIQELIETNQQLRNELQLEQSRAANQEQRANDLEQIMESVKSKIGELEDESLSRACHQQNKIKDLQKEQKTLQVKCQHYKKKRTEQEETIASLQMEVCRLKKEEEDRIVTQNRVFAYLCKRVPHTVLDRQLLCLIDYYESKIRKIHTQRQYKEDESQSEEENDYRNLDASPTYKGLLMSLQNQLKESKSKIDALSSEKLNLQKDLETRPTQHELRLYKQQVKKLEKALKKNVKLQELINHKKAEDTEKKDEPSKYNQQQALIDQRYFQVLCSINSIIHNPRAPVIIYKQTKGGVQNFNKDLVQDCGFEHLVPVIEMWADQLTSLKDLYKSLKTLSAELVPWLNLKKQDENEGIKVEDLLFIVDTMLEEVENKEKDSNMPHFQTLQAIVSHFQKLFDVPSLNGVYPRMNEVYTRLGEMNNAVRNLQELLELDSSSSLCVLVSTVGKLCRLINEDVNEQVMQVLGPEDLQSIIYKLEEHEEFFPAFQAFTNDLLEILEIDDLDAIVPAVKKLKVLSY

Variant | effect of a mutation on the interaction
S514F | disrupting interaction strength

Variants of: B1
Settings: with tri23_human TRIM23, P36406
Remark: another data set of the same source

Variant | effect of a mutation on the interaction
S91C | with no effect

Variants of: B1
Settings: with cep70_human CEP70, Q8NHQ1
Remark: another data set of the same source
Target sequence in this assay (Q8NHQ1 whole entry): as above

Variant | effect of a mutation on the interaction
S91C | with no effect

Variants of: B2
Settings: with rhpn1_human RHPN1, Q8TCX5

Variant | effect of a mutation on the interaction
A89V | with no effect

Variants of: B3
Settings: with tri54_human TRIM54, Q9BYV2

Variant | effect of a mutation on the interaction
P177A | with no effect

Variants of: B4
Settings: with mdfi_human MDFI

Variant | effect of a mutation on the interaction
G357D | with no effect

Variants of: B4
Settings: with sgta_human SGTA

Variant | effect of a mutation on the interaction
R499Q | with no effect

Variants of: B5
Settings: with cep63_human CEP63, Q96MT8
cep63_human CEP63, Q96MT8, sequence (Q96MT8 whole entry): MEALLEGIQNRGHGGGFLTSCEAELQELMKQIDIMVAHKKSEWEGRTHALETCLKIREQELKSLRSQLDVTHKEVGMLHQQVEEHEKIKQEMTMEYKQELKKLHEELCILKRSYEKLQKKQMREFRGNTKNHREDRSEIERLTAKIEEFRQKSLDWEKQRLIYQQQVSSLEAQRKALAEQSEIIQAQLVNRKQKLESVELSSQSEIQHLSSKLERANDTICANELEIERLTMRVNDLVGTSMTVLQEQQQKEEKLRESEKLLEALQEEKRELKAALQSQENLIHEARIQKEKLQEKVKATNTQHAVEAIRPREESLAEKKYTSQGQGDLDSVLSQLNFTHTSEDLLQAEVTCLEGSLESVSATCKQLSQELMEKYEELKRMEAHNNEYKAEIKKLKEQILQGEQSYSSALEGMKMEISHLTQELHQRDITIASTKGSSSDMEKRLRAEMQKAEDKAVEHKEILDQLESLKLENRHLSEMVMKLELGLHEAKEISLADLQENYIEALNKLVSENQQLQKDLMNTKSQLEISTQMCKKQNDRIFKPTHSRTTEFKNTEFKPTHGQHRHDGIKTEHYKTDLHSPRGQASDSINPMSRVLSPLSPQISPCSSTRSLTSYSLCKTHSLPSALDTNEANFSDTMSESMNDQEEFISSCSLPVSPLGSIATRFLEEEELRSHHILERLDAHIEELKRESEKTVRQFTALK

Variant | effect of a mutation on the interaction
E254K | with no effect

Variants of: B5
Settings: with nutm1_human NUTM1, Q86Y26
nutm1_human NUTM1, Q86Y26, sequence (Q86Y26 whole entry): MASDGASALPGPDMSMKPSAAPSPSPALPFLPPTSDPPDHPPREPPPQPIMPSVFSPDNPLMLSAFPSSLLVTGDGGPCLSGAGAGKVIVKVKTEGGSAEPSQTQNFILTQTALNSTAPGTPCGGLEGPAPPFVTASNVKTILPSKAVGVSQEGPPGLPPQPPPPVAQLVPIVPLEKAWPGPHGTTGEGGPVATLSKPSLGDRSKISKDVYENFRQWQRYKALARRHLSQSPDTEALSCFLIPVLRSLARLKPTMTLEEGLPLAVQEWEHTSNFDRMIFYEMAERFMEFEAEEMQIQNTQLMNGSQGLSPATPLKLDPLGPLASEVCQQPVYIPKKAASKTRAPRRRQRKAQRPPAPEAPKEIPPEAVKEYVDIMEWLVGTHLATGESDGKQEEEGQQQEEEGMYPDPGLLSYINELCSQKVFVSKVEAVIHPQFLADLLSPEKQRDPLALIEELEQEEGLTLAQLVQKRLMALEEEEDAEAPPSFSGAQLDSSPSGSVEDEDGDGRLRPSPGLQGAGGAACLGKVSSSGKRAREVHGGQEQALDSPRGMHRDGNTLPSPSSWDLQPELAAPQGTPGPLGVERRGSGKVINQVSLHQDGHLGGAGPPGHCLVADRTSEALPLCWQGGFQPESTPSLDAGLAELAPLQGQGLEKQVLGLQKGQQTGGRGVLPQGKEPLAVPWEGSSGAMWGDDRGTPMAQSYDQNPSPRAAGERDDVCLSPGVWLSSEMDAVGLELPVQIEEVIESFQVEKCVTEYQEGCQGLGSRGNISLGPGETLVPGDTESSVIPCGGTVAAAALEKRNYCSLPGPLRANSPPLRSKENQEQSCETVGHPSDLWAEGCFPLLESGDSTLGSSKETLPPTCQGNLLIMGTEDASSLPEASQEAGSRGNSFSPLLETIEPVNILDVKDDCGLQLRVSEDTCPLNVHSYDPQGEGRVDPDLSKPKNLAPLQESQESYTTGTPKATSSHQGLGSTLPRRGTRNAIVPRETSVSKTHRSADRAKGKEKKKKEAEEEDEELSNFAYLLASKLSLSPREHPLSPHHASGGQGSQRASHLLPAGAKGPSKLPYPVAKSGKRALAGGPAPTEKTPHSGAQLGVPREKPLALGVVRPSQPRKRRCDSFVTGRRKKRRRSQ

Variant | effect of a mutation on the interaction
E254K | with no effect

Variants of: B6
Settings: with gopc_human GOPC

Variant | effect of a mutation on the interaction
G701D | with no effect

Variants of: B6
Settings: with cep70_human CEP70, Q8NHQ1
Target sequence in this assay (Q8NHQ1 whole entry): as the sequence (Q8NHQ1 whole entry) above

Variant | effect of a mutation on the interaction
G701D | with no effect
